B2: GR LBD (F602S) 521-777 (receptor)
chain: GSVPATLPQLTPTLVSLLEVIEPEVLYAGYDSSVPDSTWRIMTTLNMLGGRQVIAAVKWAKAIPGFRNLHLDDQMTLLQYSWMSLMAFALGWRSYRQSSANLLCFAPDLIINEQRMTLPCMYDQCKHMLYVSSELHRLQVSYEEYLCMKTLLLLSSVPKDGLKSQELFDEIRMTYIKELGKAIVKREGNSSQNWQRFYQLTKLLDSMHEVVENLLNYCFQTFLDKTMSIEFPEMLAEIITNQIPKYSNGNIKKLLFHQK
notes: also called GR(521-777) F602S; cleaved GR LBD

The series “GR LBD (F602S) 521-777” has as its target B2. The experiment in a line: co-crystallization. As to the method: The GR/TIF2/DEX crystals were grown at room temperature in hanging drops containing 3.0 ul of the above protein-ligand solutions, and 0.5 ul of well buffer (50 mM HEPES, pH 7.5-8.5 (preferred pH range is 8.0 to 8.5), and 1.7-2.3M ammonium formate). Crystals were also obtained with mixing of the above protein solution and the well buffer at various volume ratios. Crystals appeared overnight and continously grew to a size up to 300 micron within a week. Before data collection, crystals were transiently mixed with the well buffer that contained an additional 25% glycerol, and were then flash frozen in liquid nitrogen.

The series “X-ray crystal structure” deals with the molecule itself. Nature of the series: X-ray crystal structure.

B1: TIF2 732-756 peptide (peptide)
peptide: QEPVSPKKKENALLRYLLDKDDTKD
notes: Free peptide used in solution for the stability study and for co-crystallization; No biotin is mentioned for these uses; also called TIF2 peptide; TIF2 fragment
B1: the binding result in the series with GR LBD (F602S) 521-777 is listed as “binds”.
B2: in the series “X-ray crystal structure”, the binding result is “binds”.

These data come from patent US20050181362A1 (published 2005).
